pKd: −log10 of the molar value.
Legend:
[1] = biological target: DnaK (protein used for surface plasmon resonance) (Mycoplasma fermentans); experiment: SPR; BIAcore T100, 25°C, HBS-EP (10 mM HEPES, 150 mM NaCl, 0.05% surfactant P20, pH 7.4, 3 mM EDTA); DnaK (2274.9 RU) amine-coupled on CM5 chip, DnaK as analyte at 35 ul/min, 120 s association, 600 s dissociation; preliminary kinetic analysis; self-binding (homodimer by the paper's words)
[2] = biological target: DnaK (protein used for surface plasmon resonance) (Mycoplasma fermentans); experiment: SPR; BIAcore T100, 25°C, HBS-EP (10 mM HEPES, 150 mM NaCl, 0.05% surfactant P20, pH 7.4, 3 mM EDTA); DnaK (2220 RU) amine-coupled on CM5 chip, PARP1 as analyte at 35 ul/min, 250 s association, 600 s dissociation; preliminary kinetic analysis

Substance | pKd [1] | pKd [2]
DnaK (protein used for surface plasmon resonance) (natural protein) | 7.53 | –
PARP1 (protein used for surface plasmon resonance) (from UniProt P09874 1-1014) (natural protein) | – | 7.60

Reference: PMC9651203
